In patent US20030181369A1 (published 2003):

Target: T1, T7-epitope tagged bovine β1 integrin (bovine, UniProt P53712 21-798)
T1 construct: mature; Expressed in HEK293 cells and detected in lysates with anti-T7 antibody; also called T7-β1 integrin; T7 tagged β1; not shown: le
Assay: co-immunoprecipitation with anti-HSV antibody, anti-T7 Western blot (FIG. 5B panel c)
Description: 16K derivatives were cotransfected with T7 tagged β1 integrin into HEK293 cells. Integrin expression was assessed by Western blot analysis of RIPA lysates probed with anti-T7 antibody (panel a), and glycosylation by GlcNAc-TV was assessed by incubating extracts with agarose-conjugated L-PHA and analysing recovered proteins with anti-T7 antibody (panel b). Proteins interacting with 16K or 16K mutants were isolated by immunoprecipitation using anti-HSV antibody followed by agarose conjugated protein A, and recovery of T7-β1 integrin monitored by Western blot analysis using anti-T7 antibody (panel c).
RIPA lysates made from HEK293 cells transiently transfected with pXJ41-T7-β1 were resolved on 8% SDS-PAGE, transferred to nitrocellulose, and probed with anti-T7 antibody. Alternatively, lysates were treated with endoglycosidase H (2 units) or glycopeptidase F and incubated at 37° C. overnight in the manufacturer's (Calbiochem) recommended buffers. Agarose conjugated L-PHA and ConA were used to isolate β1-6 branched and high mannose forms of β1 integrin respectively. Lysates made from cells co-transfected with HSV tagged 16K were treated with anti-HSV antibody and agarose-conjugated protein A and recovered complexes were analysed by Western blot as above. […]

T1 sequence (P53712 21-798): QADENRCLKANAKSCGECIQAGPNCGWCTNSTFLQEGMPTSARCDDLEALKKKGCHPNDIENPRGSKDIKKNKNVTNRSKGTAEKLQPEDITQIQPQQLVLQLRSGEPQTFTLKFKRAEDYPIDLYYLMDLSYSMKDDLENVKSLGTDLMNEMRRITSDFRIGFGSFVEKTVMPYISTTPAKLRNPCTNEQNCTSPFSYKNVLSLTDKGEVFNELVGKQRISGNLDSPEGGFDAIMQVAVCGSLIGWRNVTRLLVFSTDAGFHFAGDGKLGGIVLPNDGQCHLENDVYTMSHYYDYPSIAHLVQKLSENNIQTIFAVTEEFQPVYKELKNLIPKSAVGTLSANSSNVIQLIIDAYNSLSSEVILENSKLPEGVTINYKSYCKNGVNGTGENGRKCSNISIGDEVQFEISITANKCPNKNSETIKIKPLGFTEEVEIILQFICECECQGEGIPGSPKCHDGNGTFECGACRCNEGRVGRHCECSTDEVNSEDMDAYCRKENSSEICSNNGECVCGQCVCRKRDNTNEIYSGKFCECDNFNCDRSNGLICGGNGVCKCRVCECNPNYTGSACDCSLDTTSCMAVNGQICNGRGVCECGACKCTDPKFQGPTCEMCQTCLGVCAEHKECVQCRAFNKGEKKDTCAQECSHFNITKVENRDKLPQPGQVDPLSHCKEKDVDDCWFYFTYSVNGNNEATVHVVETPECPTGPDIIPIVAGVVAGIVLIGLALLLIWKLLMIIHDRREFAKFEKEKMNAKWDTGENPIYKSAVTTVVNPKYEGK

B1: HSV-tagged 16K derivative α2 (helix 2, amino acids 35-88) (other, not shown: small tags and cut ends)
chain: AKSGTGIAAMSVMRPEQIMKSIIPVVMAGIIAIYGLVVAVLIANSLNDDISLYK
Q: Does B1 bind?
A: Result: no binding

Q: Does GIVGDAGVRGTAQQPRLFVGMILILIFAEVLGLYGLIVALILSTK (other, not shown: small tags and cut ends) [HSV-tagged 16K derivative α4 (helix 4, amino acids 111-156)] bind?
A: Result: no binding
